What was measured:
[1] = target: T1, FLAG-tagged GLI1 (full length)
T1 chain: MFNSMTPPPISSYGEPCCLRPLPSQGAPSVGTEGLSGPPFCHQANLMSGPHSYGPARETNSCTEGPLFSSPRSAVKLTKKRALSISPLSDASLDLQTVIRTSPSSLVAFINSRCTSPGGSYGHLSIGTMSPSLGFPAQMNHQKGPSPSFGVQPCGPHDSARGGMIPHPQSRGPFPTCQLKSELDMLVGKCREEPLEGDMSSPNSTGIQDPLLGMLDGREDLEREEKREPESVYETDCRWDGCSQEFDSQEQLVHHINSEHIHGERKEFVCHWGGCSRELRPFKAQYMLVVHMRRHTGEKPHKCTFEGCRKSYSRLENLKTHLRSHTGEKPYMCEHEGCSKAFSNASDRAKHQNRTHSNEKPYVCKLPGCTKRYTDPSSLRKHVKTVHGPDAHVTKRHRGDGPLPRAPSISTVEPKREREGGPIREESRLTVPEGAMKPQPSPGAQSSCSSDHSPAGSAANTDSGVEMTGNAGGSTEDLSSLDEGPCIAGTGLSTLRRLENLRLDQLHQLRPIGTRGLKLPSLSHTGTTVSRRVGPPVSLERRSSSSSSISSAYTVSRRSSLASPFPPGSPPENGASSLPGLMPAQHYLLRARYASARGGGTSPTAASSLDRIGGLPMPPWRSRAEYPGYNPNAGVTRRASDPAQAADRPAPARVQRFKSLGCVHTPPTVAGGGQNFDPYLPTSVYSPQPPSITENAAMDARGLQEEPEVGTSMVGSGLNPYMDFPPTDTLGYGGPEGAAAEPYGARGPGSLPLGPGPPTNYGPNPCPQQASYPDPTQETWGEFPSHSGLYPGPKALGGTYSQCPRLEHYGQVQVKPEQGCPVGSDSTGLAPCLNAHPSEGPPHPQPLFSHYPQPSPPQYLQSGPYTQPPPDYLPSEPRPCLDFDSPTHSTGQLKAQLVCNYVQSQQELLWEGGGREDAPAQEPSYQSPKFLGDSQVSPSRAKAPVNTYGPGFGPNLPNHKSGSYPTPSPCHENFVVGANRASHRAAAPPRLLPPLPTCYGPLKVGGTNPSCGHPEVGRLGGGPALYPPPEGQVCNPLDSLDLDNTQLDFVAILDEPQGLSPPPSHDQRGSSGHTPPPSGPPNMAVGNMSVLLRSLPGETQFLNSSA

[2] = target: T2, His-tagged GLI1 fragment, amino acids 726-1106
T2 chain: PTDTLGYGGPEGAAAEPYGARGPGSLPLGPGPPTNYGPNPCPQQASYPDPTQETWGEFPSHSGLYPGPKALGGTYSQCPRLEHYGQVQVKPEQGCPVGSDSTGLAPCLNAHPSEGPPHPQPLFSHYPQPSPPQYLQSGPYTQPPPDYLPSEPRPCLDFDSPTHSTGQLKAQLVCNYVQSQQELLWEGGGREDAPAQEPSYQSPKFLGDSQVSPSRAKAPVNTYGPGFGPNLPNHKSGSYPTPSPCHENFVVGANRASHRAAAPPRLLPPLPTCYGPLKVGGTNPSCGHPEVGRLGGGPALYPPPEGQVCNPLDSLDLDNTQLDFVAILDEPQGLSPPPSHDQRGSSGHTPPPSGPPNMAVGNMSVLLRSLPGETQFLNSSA

[3] = target: T3, FLAG-tagged GLI2, P10070
T3 chain: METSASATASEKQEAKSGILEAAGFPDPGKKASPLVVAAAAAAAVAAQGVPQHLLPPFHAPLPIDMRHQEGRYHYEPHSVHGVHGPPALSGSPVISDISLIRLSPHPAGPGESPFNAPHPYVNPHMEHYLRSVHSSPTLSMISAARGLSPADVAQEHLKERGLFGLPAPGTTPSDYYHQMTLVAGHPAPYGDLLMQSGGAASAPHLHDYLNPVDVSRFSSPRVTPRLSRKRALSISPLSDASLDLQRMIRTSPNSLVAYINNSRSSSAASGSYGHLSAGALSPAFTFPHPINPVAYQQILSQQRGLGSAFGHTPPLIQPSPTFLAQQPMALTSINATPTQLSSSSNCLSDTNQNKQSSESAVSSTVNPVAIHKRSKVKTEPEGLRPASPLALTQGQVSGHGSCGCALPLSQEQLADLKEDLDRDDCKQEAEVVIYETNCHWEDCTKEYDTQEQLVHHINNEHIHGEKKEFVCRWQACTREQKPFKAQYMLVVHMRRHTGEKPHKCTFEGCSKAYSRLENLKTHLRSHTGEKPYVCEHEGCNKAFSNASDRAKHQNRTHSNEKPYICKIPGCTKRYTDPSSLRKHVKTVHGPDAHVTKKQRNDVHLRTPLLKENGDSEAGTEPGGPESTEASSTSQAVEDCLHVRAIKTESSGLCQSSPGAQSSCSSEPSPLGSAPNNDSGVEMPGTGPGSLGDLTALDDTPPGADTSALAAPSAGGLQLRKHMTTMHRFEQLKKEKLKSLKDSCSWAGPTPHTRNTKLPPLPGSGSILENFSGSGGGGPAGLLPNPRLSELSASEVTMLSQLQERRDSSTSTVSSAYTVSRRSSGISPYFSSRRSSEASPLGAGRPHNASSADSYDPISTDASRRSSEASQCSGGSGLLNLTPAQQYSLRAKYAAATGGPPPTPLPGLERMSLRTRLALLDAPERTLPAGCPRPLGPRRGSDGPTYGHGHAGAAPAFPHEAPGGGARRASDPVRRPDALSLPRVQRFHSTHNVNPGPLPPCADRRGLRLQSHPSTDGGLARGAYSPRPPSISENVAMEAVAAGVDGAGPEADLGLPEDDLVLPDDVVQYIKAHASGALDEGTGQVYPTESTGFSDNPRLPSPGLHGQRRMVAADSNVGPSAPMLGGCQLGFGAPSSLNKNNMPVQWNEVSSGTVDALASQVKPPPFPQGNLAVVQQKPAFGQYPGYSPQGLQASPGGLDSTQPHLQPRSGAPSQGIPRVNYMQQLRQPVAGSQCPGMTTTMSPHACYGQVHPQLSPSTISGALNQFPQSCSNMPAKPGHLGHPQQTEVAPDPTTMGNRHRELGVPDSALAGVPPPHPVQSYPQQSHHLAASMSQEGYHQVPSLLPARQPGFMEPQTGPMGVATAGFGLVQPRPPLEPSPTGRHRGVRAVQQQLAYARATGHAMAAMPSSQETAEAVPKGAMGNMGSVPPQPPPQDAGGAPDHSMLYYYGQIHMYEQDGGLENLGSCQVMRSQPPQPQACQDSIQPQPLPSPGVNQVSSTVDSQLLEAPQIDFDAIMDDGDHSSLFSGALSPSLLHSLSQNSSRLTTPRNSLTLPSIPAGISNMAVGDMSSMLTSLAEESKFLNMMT

B1: FLAG-tagged wild-type ULK3 (human serine/threonine kinase ULK3) (protein)
chain: MAGPGWGPPRLDGFILTERLGSGTYATVYKAYAKKDTREVVAIKCVAKKSLNKASVENLLTEIEILKGIRHPHIVQLKDFQWDSDNIYLIMEFCAGGDLSRFIHTRRILPEKVARVFMQQLASALQFLHERNISHLDLKPQNILLSSLEKPHLKLADFGFAQHMSPWDEKHVLRGSPLYMAPEMVCQRQYDARVDLWSMGVILYEALFGQPPFASRSFSELEEKIRSNRVIELPLRPLLSRDCRDLLQRLLERDPSRRISFQDFFAHPWVDLEHMPSGESLGRATALVVQAVKKDQEGDSAAALSLYCKALDFFVPALHYEVDAQRKEAIKAKVGQYVSRAEELKAIVSSSNQALLRQGTSARDLLREMARDKPRLLAALEVASAAMAKEEAAGGEQDALDLYQHSLGELLLLLAAEPPGRRRELLHTEVQNLMARAEYLKEQVKMRESRWEADTLDKEGLSESVRSSCTLQ
B1 was tested, and the “in vitro kinase assay, phosphorylation signal (32P autoradiography)” value [1] was “GLI1 and GLI3 were also phosphorylated by ULK3, but with significantly lower intensity as compared to GLI2”, the “in vitro kinase assay, phosphorylation of a His-tagged GLI1 fragment” value [2] was “Two of them-GLI1(1-433) and GLI1(726-1106)-were phosphorylated by ULK3” and the “in vitro kinase assay, phosphorylation signal (32P autoradiography)” value [3] was “The strongest phosphorylation signal was detected in the case of GLI2”.

Source: patent US20130040894A1, “INHIBITION OR ACTIVATION OF SERINE/THREONINE ULK3 KINASE ACTIVITY” (TALLINN UNIVERSITY OF TECHNOLOGY, priority 2009, published 2013)
